From patent US20190375846A1 (ULTRAHUMAN ONE, published 2019)
Residue numbers refer to the chain shown, from its start.

Key:
human GITR-Fc [1] = biological target: T1, human GITR-Fc (human, UniProt Q9Y5U5 26-161); assay: ELISA of IgG1 proteins
T1 construct: Recombinant GITR-Fc; also called hGITR-Fc; hGITR; not shown: Fc part
T1 sequence (looked up): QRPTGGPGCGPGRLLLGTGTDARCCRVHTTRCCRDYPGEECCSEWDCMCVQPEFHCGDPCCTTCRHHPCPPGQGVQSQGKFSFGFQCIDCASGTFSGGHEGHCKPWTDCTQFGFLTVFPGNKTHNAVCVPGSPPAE
Method: (§1) To coat Greiner Bio-One High bind ELISA plates, target proteins were diluted to 1 μg/ml in carbonate buffer and added at 100 μl per well, at 4° C., o/n. Coated plates were washed 3× with PBS pH7.4, blocked with 1% BSA in PBS (380 μl/well) for 1 hr at RT, then washed 3× with PBS-Tween 20 (PBST). GITR antibodies (100 μl/well; diluted in PBST) were then added and then incubated 1 hr at RT. Plates were then washed 3× with PBST and goat anti-human kappa chain-HRP added (100 μl/well) at RT, for 1 hr. Plates were then washed 3× with PBST and twice with PBS before the addition of 100 μl TMB per well. Reactions were stopped by adding 100 μl 2M H₂SO₄/well and OD was read on a plate reader at 450 nm. IgG binding analysis via ELISA on negatively charged biomolecular surfaces were performed as previously described (see Mouquet et al., 2010, Nature 467: 591-595).
To examine the influence of these mutations on immunogenicity and function, five further designer mutants (A6.1 to A6.5, see Table 4 for CDR sequences) were also submitted for Epibase analysis (Table 5). […] Cyno GITR binding was greatly diminished for all of clones A6.2 to A6.5.

human GITR-Fc [2] = biological target: T1, human GITR-Fc; assay: direct titration ELISA on coated human GITR-Fc, IgG1 0.001-1 µg/ml, OD 450 nm
Method: as §1
The 17 purified IgGs described above were then tested for binding to human and cyno GITR-Fc in direct titration ELISA format.

[3] = biological target: T2, cynomolgus monkey GITR-Fc (cynomolgus monkey (Macaca fascicularis)); assay: SPR (Biacore), Fab over GITR-Fc captured on anti-human Fc
T2 construct: also called cyno GITR-Fc; cGITR-Fc
Method: (§2) For affinity estimation, anti-human IgG Fc antibody was amine coupled at pH 5 onto three flow cells (Fc 1 to Fc 3) of a Biacore CM5 chip. The level of anti-Fc antibody immobilised onto the chip was approximately 550 RU. Human and cyno GITR-Fc and irrelevant receptor-Fc proteins were then captured onto the anti-Fc antibodies (by injecting over the antibody surface until nearly/completely saturated) in order that 80-100 RU were captured. Fab monomers were then injected over the Fc proteins captured on the chip at 37° C. a flow rate of 50 μl/min for 120 seconds, followed by Biacore running buffer (HBS-EP) being flowed over the chip for 240 seconds at 50 μl/min. The chip was regenerated between cycles using 2×15 second injections of 10 mM Glycine pH 2. The concentrations of Fab samples tested were 400, 200, 100, 50, 25, 12.5, and 6.25 nM. A Biacore running buffer control (0 nM) was also included as a control.
(§3) Monomeric Fab fragments were generated and flowed in the mobile phase on human and cyno GITR-Fc coated biosensor chips, to derive 1:1 binding values.

human GITR-Fc [4] = biological target: T1, human GITR-Fc; assay: SPR (Biacore), Fab over GITR-Fc captured on anti-human Fc, 37 C, 1:1 model
Method: as §2, §3

[5] = biological target: T2, cynomolgus monkey GITR-Fc; assay: as above
Method: as §2, §3

[6] = biological target: T3, human GITR at the cell surface (human, UniProt Q9Y5U5 26-241); assay: cell-based or functional assay
T3 sequence (looked up): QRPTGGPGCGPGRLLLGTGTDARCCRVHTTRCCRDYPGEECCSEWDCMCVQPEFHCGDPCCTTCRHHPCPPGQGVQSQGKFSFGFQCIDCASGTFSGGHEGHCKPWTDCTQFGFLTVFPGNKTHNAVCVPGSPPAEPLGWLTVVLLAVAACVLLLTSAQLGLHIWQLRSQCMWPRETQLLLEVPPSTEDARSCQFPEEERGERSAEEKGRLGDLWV

[7] = biological target: T4, cynomolgus monkey GITR at the cell surface (cynomolgus monkey); assay: cell-based or functional assay
[8] = biological target: T3, human GITR at the cell surface; assay: flow cytometry on CHO-K1 human GITR+ cells; competitor: soluble human GITRL
[9] = biological target: T4, cynomolgus monkey GITR at the cell …; assay: flow cytometry, cyno GITR-transfected murine blastoma cells, 10,000-13.7 ng/ml
Method: (§4) Concentration-dependent binding to GITR at the cell surface was analysed using flow cytometry.

[10] = biological target: T3, human GITR at the cell surface; assay: flow cytometry, human GITR-transfected murine blastoma cells, 10,000-13.7 ng/ml
Method: as §4

human GITR-Fc [11] = biological target: T1, human GITR-Fc; assay: HTRF competition: unlabelled IgG1 titrated 0.003-100 µg/ml against terbium-labelled VH1/VL1 IgG on biotinylated human GITR-Fc with SA-XL665, 665/615 ratio
Method: A competition HTRF assay was established to examine epitope competition against VH1/VL1 IgG by grafted and library-derived clones. The purified VH1/VL1 IgG was labelled with terbium using a labelling kit (CisBio) per the manufacturers instructions. The final reaction mix contained biotinylated human GITR-Fc, SA-XL665 (CisBio), terbium-labelled parental […], and competitor IgG of interest, prepared as described above, in a total reaction volume of 20 μl in 1× assay buffer [50 mM sodium phosphate, pH 7.5, 400 mM potassium fluoride, and 0.1% BSA (w/v)]. Reagents were added sequentially on a MiniTrak Liquid Handling Platform (Perkin-Elmer) into 384-well low-volume black plates (Nunc). Reactions proceeded for 1 h at room temperature, and plates were subsequently read on a plate reader with excitation at 340 nm and two emission readings at 615 nm (measuring input donor fluorescence from VH1-VL1-cryptate) and 665 nm (measuring output acceptor fluorescence from SAXL665). Readings were expressed as 665 nm/615 nm ratios.
To examine the competition of the library-derived clones with the unaltered, closest-germline grafted CDRs of VH1/VL1 IgG, an Homogeneous Time Resolved Fluorescence (HTRF) assay was established. This assay incorporated terbium-labelled VH1/VL1 IgG, Biotinylated hGITR-Fc and streptavidin-XL665, in solution-phase binding. […]

B1: A6.2 IgG1 (antibody, V domains shown)
VH: EVQLVESGGGLVQPGGSLRLSCAASGFSLSTSGYGVGWVRQAPGKGLEWLAHIWWDDDKYYVDSVKGRFTISRDNAKNSLYLQMNSLRAEDTAVYYCARTRQYFPFAYWGQGTLVTVSS
VL: EIVLTQSPATLSLSPGERATLSCRASQSVGSNLAWYQQKPGQAPRLLIYSASNRYTGIPARFSGSGSGTDFTLTISSLEPEDFAVYYCQQYSTNPLTFGGGTKVEIK
notes: Human IgG1, designer mutant of D-A6; built as m28; also called Clone A6.2
- binding result (human GITR-Fc [1]): binds

B2: MH IgG1 (Maximally Humanized designer clone) (antibody, V domains shown)
VH: B1 VH with V36M, G37S, L50V, D58E
VL: B1 VL with N53Y, Y55A, N94D
notes: Human IgG1, designer clone; also called Clone MH
- binding result (human GITR-Fc [2]): binds

B3: A6.3 IgG1 (antibody, V domains shown)
VH: B1 VH with G37S
VL: B1 VL with N94D
notes: Human IgG1, designer mutant of D-A6; built as m28; also called Clone A6.3
- binding result (human GITR-Fc [1]): binds

B4: A6.4 IgG1 (antibody, V domains shown)
VH: B1 VH with V36M, G37S
VL: B1 VL with N94D
notes: Human IgG1, designer mutant of D-A6; built as m28; also called Clone A6.4
- binding result (human GITR-Fc [1]): binds

B5: D-A6 Fab (Fab, V domains shown)
VH: B1 VH
VL: B1 VL with N53Y, N94D
notes: v-domains built as m25; also called D-A6 Fab fragment
- fold improved affinity against VH1/VL1 Fab [3]: ~4 fold
- Kd (human GITR-Fc [4]): 120 nM
- koff (human GITR-Fc [4]): 0.011 s⁻¹
- kon (human GITR-Fc [4]): 92000 M⁻¹ s⁻¹
- Kd [5]: 57 nM
- koff [5]: 0.0021 s⁻¹
- kon [5]: 37000 M⁻¹ s⁻¹

B6: A6.5 IgG1 (antibody, V domains shown)
VH: B1 VH with V36M
VL: B1 VL with N94D
notes: Human IgG1, designer mutant of D-A6; built as m28; also called Clone A6.5
- binding result (human GITR-Fc [1]): binds

B7: VH1/VL1 IgG1 (antibody, V domains shown)
VH: QVTLRESGPALVKPTQTLTLTCTFSGFSLSTSGMGVGWIRQPPGKALEWLAHIWWDDDKYYNPSLKSRLTISKDTSKNQVVLTMTNMDPVDTATYYCARTRRYFPFAYWGQGTLVTVSS
VL: EIVMTQSPATLSVSPGERATLSCKASQNVGTNVAWYQQKPGQAPRLLIYSASYRYSGIPARFSGSGSGTEFTLTISSLQSEDFAVYYCQQYNTDPLTFGGGTKVEIK
notes: Full-length human IgG1; also called hVH1/VL1; G-VH1/VL1
- EC50 of FcγRIIIa activation, Promega ADCC reporter assay, CHO-K1 target cells expressing human GITR [6]: 35.6 nM
- EC50 of FcγRIIIa activation, Promega ADCC reporter assay, CHO-K1 target cells expressing cyno GITR [7]: 160 nM
- fold reduction of binding signal in the presence of 10 µg/ml soluble GITRL [8]: > 10 fold
- concentration at maximum MFI [9]: ~1110 ng/mL
- concentration at maximum MFI [10]: ~1110 ng/mL
- IC50 (read off the curve) (human GITR-Fc [11]): ~1 µg/mL
